Test results published in patent publication US20110008323A1.
Values belong to the molecule of their own block, whether it stands above or below them.

Assays:
[1] = molecular target: T1, human Cadherin-11 expressed on 431-D-11 cells (human) (UniProt P55287); experiment: cell-based or functional assay
T1 sequence: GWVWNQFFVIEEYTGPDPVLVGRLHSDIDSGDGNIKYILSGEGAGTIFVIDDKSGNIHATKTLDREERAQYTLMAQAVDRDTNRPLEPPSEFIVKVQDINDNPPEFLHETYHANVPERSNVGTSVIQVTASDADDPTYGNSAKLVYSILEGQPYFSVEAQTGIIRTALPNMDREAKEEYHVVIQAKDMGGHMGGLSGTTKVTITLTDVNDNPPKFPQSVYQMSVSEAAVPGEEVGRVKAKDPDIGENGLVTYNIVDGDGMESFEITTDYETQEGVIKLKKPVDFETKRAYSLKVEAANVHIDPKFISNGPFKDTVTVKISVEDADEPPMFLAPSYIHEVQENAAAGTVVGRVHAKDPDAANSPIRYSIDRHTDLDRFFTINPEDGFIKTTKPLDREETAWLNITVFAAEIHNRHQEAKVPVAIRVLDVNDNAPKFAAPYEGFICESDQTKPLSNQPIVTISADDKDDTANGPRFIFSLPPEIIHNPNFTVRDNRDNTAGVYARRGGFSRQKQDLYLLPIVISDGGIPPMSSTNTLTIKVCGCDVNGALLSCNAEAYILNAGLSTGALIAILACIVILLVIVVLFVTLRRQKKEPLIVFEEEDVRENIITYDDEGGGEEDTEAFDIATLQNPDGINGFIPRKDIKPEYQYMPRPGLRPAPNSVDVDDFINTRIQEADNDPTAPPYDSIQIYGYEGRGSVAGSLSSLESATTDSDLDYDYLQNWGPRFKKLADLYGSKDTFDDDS

[2] = molecular target: T2, Cad-11 EC1 domain peptide (first 33 amino acids of the EC1 domain), specificity ELISA of Example 5 (human); experiment: ELISA on EC1 domain peptides (first 33 amino acids)
T2 sequence (peptide): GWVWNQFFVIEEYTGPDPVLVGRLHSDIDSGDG

[3] = molecular target: T1, human Cadherin-11 expressed on 431-D-11 cells (human); experiment: cell-based or functional assay; remark: listed apart in the source
[4] = molecular target: T3, Cad-8 EC1 domain peptide (region overlapping the G1-G33 region of the Cad-11 EC1 domain) (UniProt P55286); experiment: ELISA on EC1 domain peptides, against the Cad-11 peptide
T3 sequence (peptide, conjugated to biotin, looked up): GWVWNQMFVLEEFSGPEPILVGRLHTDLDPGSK

- inhibition of Cad-11 mediated cell aggregation [1]: 3 µg/mL
- inhibition of aggregation of Cad-11 expressing 431-D-11 cells at 40 min [1]: 3 µg/mL
Molecule: human Cad-11-EC1-hIgG2-Fc1 fusion protein (Fc fusion)

- inhibition of Cad-11 mediated cell aggregation [1]: 100 µg/mL
Molecule: human Cad-11-EC1-5-Fc fusion protein (from UniProt P55287 54-609)

- fold higher binding to Cad-11 than to any of the other cadherins tested [2]: > 100 fold
- inhibition of aggregation of Cad-11-expressing A-431-D cells (photographs, overnight culture) [3]: 30 µg/mL
- fold lower binding than to Cad-11 [4]: 365 fold
B1: H1M1 anti-Cad-11 antibody (produced by hybridoma H1M1, ATCC accession number PTA-9699) (antibody, from a related filing, V domains shown)
VH: EVQLQQSGPELVKPGASVKISCKASGYSFTGYFMNWVKQSHGKSLEWIGRINPYTGDTFYNQKFKGKATLTVDKSSSTAHMELLSLSSEDSAVYYCGRLGSRYWYFDVWGAGTTVTVSS
VL: DVLMTQTPLSLPVSLGDQASISCRSSQSIIHSNGNTYLEWYLQKPGQSPKLLIYKVSNRFSGVPDRFTGSGSGTDFTLKISRVEAEDLGVYYCFQGSHVPWTFGGGTKLEIK
